This note sets out measurements from patent US20230212288A1 (published 2023).

In test [1] the target is T1, human CD3 receptor complex (human, UniProt P07766 23-207; P09693 23-182; P04234 22-171).
T1 construct: whole, on cells; also called native CD3; CD3 endogenous protein
Briefly: flow cytometry on PBMCs of donor alpha; competition of titrated BSAB with 100 nM biotin-conjugated BSAB, PE-streptavidin detection. The procedure:
(§1) The blood was diluted with the same volume of the phosphate buffered saline (ECO-Servis, Cat. No. B-60201), layered above Ficoll density gradient (ρ=1.077 g/cm³) (“Pan-Eco”, Cat. No. P052) and centrifuged at 800 g and 20±2° C. for 30 minutes. PBMCs were collected at the phase boundary and washed twice with an isotonic phosphate buffered saline. A cell deposit was re-suspended in 15 mL of the DMEM/F12 medium (Sigma, Cat. No. D8900-10L) with 10% fetal bovine serum (GE Healthcare, Cat. No. SV30160) and incubated in a cultural vial (SPL Life Sciences Co, Cat. No. 70075) for attaching monocytes at 37±2° C. for 4 hours. Upon incubation, unattached cells were collected, a cell suspension was centrifuged, a cell deposit was re-suspended in the FACS buffer with a 1:100 Fc Blook solution (BD Pharmingen™, Cat. No. 564220) for inhibiting non-specific binding of Fc-receptors exposed on B-cell membranes. The prepared PBMC suspension with the cell concentration of 4*10⁶/mL was introduced by 50 μL (2*10⁵ cells per well) into a 96-well plate with a V-shaped bottom (Corning Inc, Cat. No. 3894).
(§2) Then a solution of biotin-conjugated BSAB with the concentration of 300 nM was prepared and introduced into wells with cells by 50 μL (preparation final concentration being 100 nM). […] Cell fluorescence intensity in the PE-channel was measured with the use of the Canto II cytometer. […]
Background: Flow cytometry measures light scatter and fluorescence of single cells or particles in a stream.

Test [2] deals with T1, human CD3 receptor complex. The experiment in a line: flow cytometry on Jurkat cells (CD3-positive), FITC anti-human IgG detection. The procedure: (§3) Cell suspensions of CD19-positive cell lines (NALM6 (ATCC® CRL-3273™), Toledo (ATCC® CRL-2631™), Namalwa (ATCC® CRL-1432™), Daudi (ATCC® CCL-213™), Ramos (RA 1) (ATCC® CRL-1596™), Raji (ATCC® CCL-86™)) and CD3-positive cell lines (HuT78 (ATCC® TIB-161™), CCRF-CEM (ATCC® CCL-119™), Jurkat (ATCC® TIB-152™)) with the concentration of 2*10⁶ cells/mL were introduced by 30 μL into a 96-well plate with a V-shaped bottom (Corning Inc, Cat. No. 3894). […] When the incubation was over, the cells were twice washed with the FACS buffer and deposited by centrifuging at 1000 rpM and (4±2°) C. 30 μL of a solution of FITC-tagged antibodies directed against human IgG (Donkey F(ab)₂ Anti-Human IgG, Abcam, Cat. No. Ab102437) diluted in the 1:200 ratio were added into each well to the deposited cells, and incubated on ice in the dark for 30 minutes, followed by triple washing with the FACS buffer. Then the cells were fixed by re-suspending the cell deposit in each well in 150 μL of the FIX-buffer (phosphate buffered saline with 1%-solution of formalin). Cell fluorescence intensity in the FITC-channel was measured with the use of the Canto II cytometer.

Test [3] concerns the target T1, human CD3 receptor complex. The experiment in a line: flow cytometry on PBMCs of donor beta; competition of titrated BSAB with 100 nM biotin-conjugated BSAB, PE-streptavidin detection. As for the experimental part:
as §1, §2

The target of test [4] is T1, human CD3 receptor complex. Briefly: flow cytometry on CCRF-CEM cells (CD3-positive), FITC anti-human IgG detection. The procedure:
as §3

In test [5] the target is T1, human CD3 receptor complex. Briefly: flow cytometry on PBMCs of donor; competition of titrated BSAB with 100 nM biotin-conjugated BSAB, PE-streptavidin detection. As for the experimental part: as §1, §2
In test [6] the target is T1, human CD3 receptor complex. Briefly: cell-based or functional assay.
The target of test [7] is T1, human CD3 receptor complex. Briefly: cell-based or functional assay. The source holds these as a separate data set.
The target in test [8] is T1, human CD3 receptor complex. Briefly: flow cytometry on HUT78 cells (CD3-positive), FITC anti-human IgG detection. The procedure:
as §3

T1 sequence (P07766 23-207, chain 1 of 3): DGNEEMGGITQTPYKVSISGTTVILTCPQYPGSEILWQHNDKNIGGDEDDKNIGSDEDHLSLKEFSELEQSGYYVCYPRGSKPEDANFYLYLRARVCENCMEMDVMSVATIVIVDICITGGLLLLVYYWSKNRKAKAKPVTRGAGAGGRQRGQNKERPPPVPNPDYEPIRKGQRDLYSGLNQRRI
T1 sequence (P09693 23-182, chain 2 of 3): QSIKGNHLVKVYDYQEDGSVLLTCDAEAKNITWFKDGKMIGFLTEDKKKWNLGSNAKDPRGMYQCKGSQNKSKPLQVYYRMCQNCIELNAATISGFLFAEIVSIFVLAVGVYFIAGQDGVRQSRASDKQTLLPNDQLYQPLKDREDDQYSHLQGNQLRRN
T1 sequence (P04234 22-171, chain 3 of 3): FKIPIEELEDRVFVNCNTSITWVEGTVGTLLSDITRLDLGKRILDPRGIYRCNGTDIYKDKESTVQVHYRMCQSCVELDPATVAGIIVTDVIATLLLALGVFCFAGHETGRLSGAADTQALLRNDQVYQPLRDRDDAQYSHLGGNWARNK

B1: 309_02_A08 BSAB clone (bispecific antibody)
chain: DIQLTQTPASLAVSLGQRATISCKASQSVDYDGDSYLNWYQQIPGQPPKLLIYDASNLVSGIPPRFSGSGSGTDFTLNIHPVEKVDAATYHCQQSTEDPWTFGGGTKLEIKGGSGGAMAQVQLVQSGAEVKKPGASVKVSCKASGYTFTGYYMHWVRQAPGQGLEWMGIINPSGGSTSYAQKFQGRVTMTRDTSTSTVYMELSSLRSEDTAVYYCARTGKNYYYYGMDAWGQGTTVTVSSGGGGSGGGGSGGGASNFMLTQPHSVSESPGKTVTISCTRSSGSIARNYVQWYQQRPGSSPTTVIYEDNQRPSGVPDRFSASIDSSSNSASLTISGLQTEDEADYYCQSYDTSNHVVFGGGTKLTVLGQPAAAGGGGSQVQLQQSGAELVRPGSSVKISCKASGYAFSSYWMNWVKQRPGQGLEWIGQIWPGDGDTNYNGKFKGKATLTADESSSTAYMQLSSLASEDSAVYFCARRETTTVGRYYYAMDYWGQGTSVTVSSASAAVECPPCPAPPVAGPSVFLFPPKPKDTLMISRTPEVTCVVVDVSHEDPEVQFNWYVDGVEVHNAKTKPREEQFNSTFRVVSVLTVVHQDWLNGKEYKCKVSNKGLPAPIEKTISKTKGQPREPQVYTLPPSREEMTKNQVSLTCLVKGFYPSDIAVEWESNGQPENNYKTTPPMLDSDGSFFLYSKLTVDKSRWQQGNVFSCSVMHEALHNHYTQKSLSLSPGK
notes: described order VL CD3-VH CD19-VL CD19-VH CD3 with hinge and IgG2 Fc; the tie is not explicit; also called BSAB preparation
For B1, the IC50 in test [1] worked out at 52.1 nM; in test [3] it was 66.5 nM; in test [5], 62.3 nM. In addition, the EC50 in test [2] stood at 0.37 nM; in test [4], 0.4 nM; in test [8] it was 1.2 nM. For the same molecule, the “Activity (EC50 for activation of Jurkat line cells, pM)” value in test [6] is 2.2 pM. Moreover, in test [7], the “EC50 of chemiluminescence signal, Raji cells with Jurkat-Luc-NFAT reporter cells” value stood at 2.3 pM.

A word on the IC50: it is the concentration that inhibits the measured activity by half. The term EC50 denotes the midpoint of the concentration-response curve. A lower EC50 goes with an effect from little substance.
